Assay in all cases: BLI
For orientation: BLI is a label-free optical method that tracks binding on a fibre tip over time.

Test [1] has as its target T1, N501Y mutant RBD (SARS-CoV-2 Alpha (B.1.1.7), RBD N501Y, N501Y).
For test [2], the target named is T1, N501Y mutant RBD. This is another data set of the same source.
The next test deals with RBD of the Delta variant (SARS-CoV-2, Delta (B.1.617.2), L452R | T478K).

Residue numbers refer to the chain shown, from its start. Where two headings read alike, the source gives them in different places.

B1: Y1.10 (scFv, V domains shown)
VH: QVQLQQSGAEVKKPGSSVKVSCKASGGTFGNWTISWVRQAPGQGLEWMGGIGPRQGEATYAQKFQGRVTITTDESTSTAYMELSSLRSEDTAVYYCARETWYTSGGMDVWGQGTTVTVSS
VL: SYELTQPPSVSVAPGKTARITCGGNNIGRKSVHWYQQKPGQAPVLVVYDDSDRPSGIPERFSGSNSGNTATLTISRVEAGDEADYYCQVYDLWSSDYVFGTGTKVEIK
As a reminder, the Kd is a measure of binding affinity in units of concentration. The low end stands for higher affinity, the high end for lower affinity. Take B1: the Kd in the test with N501Y mutant RBD [1] was found to be 842 nM.

B2: D27LE, scFv (scFv, V domains shown)
VH: B1 VH with T33S, G52D, R54S, Q55R
VL: B1 VL
Take B2: binding with N501Y mutant RBD [1] was characterised by a dissociation constant (Kd) of 276 nM.

B3: Y6.8 (scFv, V domains shown)
VH: B1 VH with G52A, R54D, Q55R
VL: B1 VL
In the test with N501Y mutant RBD [1], B3 yielded a Kd of 93.5 nM.

B4: Y9.7 (scFv, V domains shown)
VH: B1 VH with T33S, G52N, R54S, Q55I
VL: B1 VL
B4 returned a Kd with N501Y mutant RBD [1] of 79.2 nM.

B5: Y9.6 (scFv, V domains shown)
VH: B1 VH with G52I, R54T, Q55I
VL: B1 VL
Consider B5, for which the affinity with N501Y mutant RBD [1], expressed as Kd, was 263 nM.

B6: Y4.1 (scFv, V domains shown)
VH: B1 VH with G52A, R54T, Q55R
VL: B1 VL
For the molecule B6, in the test with N501Y mutant RBD [1], binding was characterised by a dissociation constant (Kd) of 102 nM.

B7: D27LEY (antibody, V domains shown)
VH: B1 VH with T33S, G52A, R54G, Q55R
VL: B1 VL
Take B7: the values for the Kd with N501Y mutant RBD [2] and with RBD of the Delta variant were below 0.001 nM and 0.32 nM, respectively.

B8: Y2.1 (scFv, V domains shown)
VH: B1 VH with T33S, G52V, Q55D
VL: B1 VL
B8 had a Kd in the test with N501Y mutant RBD [1] of 30.8 nM.

B9: Y8.10 (scFv, V domains shown)
VH: B1 VH with T33S, G52A, R54G
VL: B1 VL
For B9, in the test with N501Y mutant RBD [1], the Kd came to 21.3 nM.

B10: Y7.10 (scFv, V domains shown)
VH: B1 VH with G52I, R54S, Q55R
VL: B1 VL
In the test with N501Y mutant RBD [1], B10 gave a Kd of 41.2 nM.

B11: D27LE (antibody, V domains shown)
VH: B1 VH with T33S, G52D, R54S, Q55R
VL: B1 VL
As for B11, in the test with N501Y mutant RBD [2], the Kd amounted to 0.54 nM.

B12: Y4.2 (D27LEY), scFv (scFv, V domains shown)
VH: B1 VH with T33S, G52A, R54G, Q55R
VL: B1 VL
Regarding B12, the Kd with N501Y mutant RBD [2] was found to be 4.87 nM; in the test with N501Y mutant RBD [1], 9.4 nM.

The values are drawn from PMC8765073 (mAbs, 2022).
